Assay results taken from patent US20230313217A1, “CHLOROPLAST TARGETING PEPTIDES AND CONJUGATES AND COMPOSITIONS THEREOF” (The Regents of the University of California, priority 2021, published 2023).
Ends that are not written are not given here.

Legend:
[1] = Hydrodynamic size by dynamic light scattering; format: physicochemical; details: 10 mM TES buffer, pH 7
Procedure: (§1) The resulting PEI-SWCNT suspension was characterized by measuring the absorbance spectra on a UV-vis absorbance spectrophotometer (UV-2600, Shimadzu). The quality of the SWCNT suspension was determined by analyzing absorbance peaks at 632 nm. This measurement was performed with triplicates. The concentration of the PEI-SWCNT was determined spectrophotometrically using the absorption value at 632 nm and utilizing the equation (absorbance at 632 nm/extinction coefficient of 0.036)=mg L^−1. The final concentration obtained after purification ranged from 18 to 30 mg/L. The nanoparticle ζ potential was measured using a Zetasizer (Nano ZS, Malvern Instruments) in samples suspended in 10 mM TES buffer pH 7.0, with 0.1 mM NaCl. The hydrodynamic size was measured using Zetasizer (Nano ZS, Malvern Instruments) in samples suspended in a 10 mM TES buffer at pH 7.
Characterization of Nanomaterials. All nanomaterials were characterized by absorbance UV-vis spectroscopy (UV-2600 Shimadzu), hydrodynamic size (Nano S), and ζ potential (Nano ZS). The nanomaterial ζ potential and hydrodynamic diameter were measured in a 10 mM TES buffer (pH 7.0). The ζ potential measurements were performed in 0.1 mM NaCl to improve conductivity and analyzed by the Hückel approximation model.^111 CD fluorescence emission was collected using a fluorescence spectrometer (Horiba PTI QM-400). […]

isolated chloroplasts = assay: Intact chloroplast analysis by DIC microscopy; design: species or system Arabidopsis thaliana; details: 1 and 5 days, 20 mg/L / 2 mg/L
Description: (§2) Interactions of Targeted Carbon Nanostructures with Plant Cell and Chloroplast Membranes. Damage to plant lipid membranes may cause ion and molecule permeability changes across the membrane, interruption of metabolic processes, intracellular signaling, and trafficking of biomolecules.^65,66 The application of targeted nanostructures with high charge allows penetration of plant cell barriers and localization inside organelles that could cause disruption in lipid membrane integrity. Plant cell membrane intactness in leaves treated with TP-β-CDs or TP-pATV1-SWCNTs (Table 1) was assessed by staining dead cells with propidium iodide (PI) dye followed by imaging under confocal microscopy (FIG. 7A). PI is a nonpermeable dye that only crosses the cell membranes when they are damaged. The overall percentage of intact cells without PI stained nuclei was calculated relative to the total number of cells (FIG. 7B). […] Both TP-β-CDs and TP-pATV1-SWCNTs maintained more than 93% of plant cells with intact membranes after 1 and 5 days of exposure, similar to controls without nanoparticles (FIG. 7B). […]
Identification of intact chloroplast was performed as reported in previous studies^4,5 with some modifications. […] The average from ten images from each of the seven biological replicates was quantified for calculating the average percentage of intact chloroplasts.

[2] = system: Arabidopsis leaf mesophyll tissue; assay: Plant cell viability assay (propidium iodide, percentage of dead cells); format: in vivo, Arabidopsis thaliana
Procedure: Impact of Targeted Nanomaterials on Plant Cell Viability. We investigated the viability of plant cells treated with increasing concentrations of targeted and nontargeted nanomaterials by measuring the percentage of dead plant cells. Arabidopsis leaf tissues were treated with targeted nanomaterials at 20, 100, 500 mg/L concentrations of TP-β-CDs or 2, 5, 10 mg/L of TP-pATV1-SWCNTs (FIG. 6, Table 1). Biocompatibility assays were performed up to 5 days of nanocarrier exposure before control Arabidopsis plants experienced the onset of leaf senescence marked by significant changes in chlorophyll levels (FIG. 15A). On day 7, significant differences in chlorophyll were detected in control Arabidopsis plants without nanomaterials. […] Therefore, subsequent experiments assessing the impact of targeted nanocarriers on plant cell and molecular biology were focused on biocompatible concentrations of 20 mg/L for TP-β-CDs and 2 mg/L for TP-pATV1-SWCNTs.
The percentage of intact cells was determined in Arabidopsis thaliana leaf tissues treated with TP-β-CD (20, 100, 500 mg/L) or TP-pATV1-SWCNT (2, 5, 10 mg/L) from one to five days. The nuclei of dead cells were stained with propidium iodide (PI) diluted to 1× concentration manufactures (Plant cell viability assay kit, PA0100, Sigma-Aldrich). Leaf discs were collected and incubated in PI dye for 15 minutes before confocal analysis. PI can enter cells with damaged membranes, and bind to double-stranded nucleic acids in non-viable cells. […] The total number of cells was determined using chloroplast autofluorescence to identify the leaf mesophyll cell boundaries. The leaf disc surface was washed with DI water to remove the residual dye and mounted on a microscope glass slide for imaging by laser scanning confocal microscope (TCS SP5, Leica Microsystems, Germany). Confocal imaging settings were as follows: ×40 wet objective (Leica Microsystems, Germany), propidium iodide dye excitation by a 543 nm laser (40% power), and PMT emission detection range set to 590-630 nm with Pinhole size set to 3 airy units.

plant cell membranes = assay: Plant cell membrane intactness (PI staining, confocal); format: in vivo, Arabidopsis thaliana; details: after 5 days of exposure; 20 mg/L / 2 mg/L
Description: as §2
The percentage of intact cells was determined in Arabidopsis thaliana leaf tissues treated with TP-β-CD (20, 100, 500 mg/L) or TP-pATV1-SWCNT (2, 5, 10 mg/L) from one to five days. […] The total number of cells was determined using chloroplast autofluorescence to identify the leaf mesophyll cell boundaries. […]

[3] = ζ potential of carbon nanostructures (Zetasizer); format: physicochemical
Procedure: as §1
Characterization of Nanomaterials. All nanomaterials were characterized by absorbance UV-vis spectroscopy (UV-2600 Shimadzu), hydrodynamic size (Nano S), and ζ potential (Nano ZS). The nanomaterial ζ potential and hydrodynamic diameter were measured in a 10 mM TES buffer (pH 7.0). The ζ potential measurements were performed in 0.1 mM NaCl to improve conductivity and analyzed by the Hückel approximation model.^111 CD fluorescence emission was collected using a fluorescence spectrometer (Horiba PTI QM-400). The stepwise synthesis of TP-β-CDs was analyzed using FTIR (Thermo Nicolet 6700 FTIR).

chloroplast DNA = details: in vivo
Procedure: Chloroplasts were isolated from Arabidopsis leaves through a centrifugation gradient method in sucrose buffer.^1-3 Intact chloroplasts were isolated from leaves exposed to targeted and non-targeted CDs and pATV1-SWCNT, and buffer as control (10 mM TES pH 7.3) in 0.1% Silwet (v/v) for one day or five days. Following foliar spray with nanomaterials as explained above, 4 g of leaf tissue was collected from seven plants per treatment. Treated tissue was harvested, and ground in ice-cold 1× chilled sucrose buffer (pH 7.3, 28 mM Na2HPO4, 22 mM KH2PO4, 2.5 mM MgCl2, 400 mM sucrose, and 10 mM KCl). […]
DNA was extracted from plant leaf tissue and prepared using a Quick-DNA Plant/Seed DNA Miniprep kit (Zymo) in leaf samples treated with nanomaterials from one to five days. […] The DNA extraction was performed according to the manufacturer's instructions (zymoresearch.com) and concentrations were measured using a Nanodrop ND-1000 Spectrophotometer. […]
We determined the amount of oxidative DNA damage in plant leaves treated with nanomaterials for one day or five days using an enzyme-linked immunosorbent assay (ELISA) for 8-hydroxydeoxyguanosine (8-OHdG). The OxiSelect™ Oxidative DNA Damage ELISA Kit (Cat# STA-320, Cell Biolabs, inc.) quantifies the amount of 8-OHdG in isolated DNA samples from plant leaf tissue or isolated chloroplast suspensions. […]

Question: Which “hydrodynamic size (DLS)” value [1] does the source give for “TP-β-CD: carbon dots with β-cyclodextrin molecular baskets covalently bonded to chloroplast targeting peptide MASSMLSSATMVGGC (SEQ ID NO:5) (also: covalently bonded to carbon dots with β-cyclodextrin, site not given here)” here?
Answer: Its value is 27.8±5.8 nm.

Question: What about the chloroplast membrane intactness (isolated chloroplasts) of the same substance?
Answer: Its chloroplast membrane intactness is “did not affect chloroplast membrane damage”.

Question: What about the biocompatible concentration ([2]; Arabidopsis leaves, up to 5 days) of the same substance?
Answer: The biocompatible concentration was 20 mg/L.

Question: What about the “percentage of dead cells” value ([2]; TP-β-CD 20 mg/L, TP-pATV1-SWCNT 2 mg/L, summary) of the same substance?
Answer: The value was 6%.

Question: And the “percentage of dead cells compared to control plants” value ([2]; after 5 days of exposure, TP-β-CDs 20 mg/L, TP-pATV1-SWCNTs 2 mg/L)?
Answer: The value was “no significant differences”.

Question: And the “plant dead cells relative to controls without nanoparticles” value ([2]; day 1, TP-β-CDs 20 mg/L, TP-pATV1-SWCNTs 2 mg/L)?
Answer: The value was “no significant differences”.

Question: And the “percentage of dead cells” value ([2]; day 5, 100 mg/L)?
Answer: Its value is 20.0±4.8%.

Question: And the “percentage of dead cells” value ([2]; day 5, 500 mg/L)?
Answer: Its value is 23.4±4.8%.

Question: What about the “cell and chloroplast membrane damage” value (plant cell membranes) of the same substance?
Answer: The value was “no permanent cell and chloroplast membrane damage”.

Question: And the ζ potential ([3]; 10 mM TES buffer, pH 7.0)?
Answer: The ζ potential was −36.4±3.4 mV.

Question: What about the “ζ potential, magnitude” value ([3]; higher in magnitude than) of the same substance?
Answer: Its value is greater than 30 mV.

Question: And the “oxidative damage to isolated chloroplast DNA” value (chloroplast DNA)?
Answer: Its value is “not affected”.
